Laboratory results reported in patent US20240083986A1 (published 2024).

T1: CHO produced recombinant Bet v 1 containing a S85A mutation with a C-terminal myc-myc hexahistidine tag … (Betula verrucosa (birch))
T1 chain: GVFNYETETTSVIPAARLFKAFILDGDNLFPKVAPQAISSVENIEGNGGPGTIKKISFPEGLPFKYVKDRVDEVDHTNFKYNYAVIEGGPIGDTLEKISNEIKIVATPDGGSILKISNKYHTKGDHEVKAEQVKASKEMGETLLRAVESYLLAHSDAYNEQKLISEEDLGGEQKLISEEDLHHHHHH

T2: Apple (Mal d 1, MyBiosource, Cat #MBS1224919) (Apple, UniProt P43211 2-159, limits assumed)
T2 construct: Bought reagent
T2 sequence (looked up): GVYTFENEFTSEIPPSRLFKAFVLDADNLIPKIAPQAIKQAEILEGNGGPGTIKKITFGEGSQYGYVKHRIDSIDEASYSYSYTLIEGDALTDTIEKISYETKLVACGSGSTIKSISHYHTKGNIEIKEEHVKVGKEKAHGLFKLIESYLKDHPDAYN

T3: Alder (Aln g 1, MyBiosource, Cat #MBS1041484) (Alder, UniProt P38948 2-160, limits assumed)
T3 construct: Bought reagent
T3 sequence (looked up): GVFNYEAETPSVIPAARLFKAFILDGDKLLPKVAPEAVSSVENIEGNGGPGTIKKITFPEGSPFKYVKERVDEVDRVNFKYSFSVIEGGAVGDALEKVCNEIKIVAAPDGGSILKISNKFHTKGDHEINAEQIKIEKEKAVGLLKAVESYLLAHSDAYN

T4: European Hornbeam (Car b 1 isoform 1A & 1B, MyBiosource, Cat #MBS1200018) (European Hornbeam, UniProt P38949 2-160)
T4 construct: Bought reagent
T4 sequence (looked up): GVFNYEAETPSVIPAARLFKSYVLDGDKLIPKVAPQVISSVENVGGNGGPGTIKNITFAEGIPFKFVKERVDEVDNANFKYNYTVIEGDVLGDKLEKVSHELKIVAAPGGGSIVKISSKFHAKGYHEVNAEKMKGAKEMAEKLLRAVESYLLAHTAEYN

T5: European Hornbeam (Car b 1 isoform 2, MyBiosource, Cat #MBS1043940) (European Hornbeam, UniProt P38950 2-160, limits assumed)
T5 construct: Bought reagent
T5 sequence (looked up): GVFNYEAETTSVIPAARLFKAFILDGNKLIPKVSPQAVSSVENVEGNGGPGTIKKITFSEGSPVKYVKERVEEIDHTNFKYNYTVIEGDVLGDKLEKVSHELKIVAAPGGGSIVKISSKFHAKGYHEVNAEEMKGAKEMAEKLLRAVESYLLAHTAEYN

T6: Celery (Api g 1, MyBiosource, Cat #MBS1171376) (Celery, UniProt P49372 1-154, limits assumed)
T6 construct: Bought reagent
T6 sequence (looked up): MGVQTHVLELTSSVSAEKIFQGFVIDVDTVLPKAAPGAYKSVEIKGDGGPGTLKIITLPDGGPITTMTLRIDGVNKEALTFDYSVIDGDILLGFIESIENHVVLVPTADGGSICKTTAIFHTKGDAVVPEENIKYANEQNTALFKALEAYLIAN


Assays:
[1] = molecular target: T1, CHO produced recombinant Bet v 1 …; experiment: SPR, mAb captured via anti-hFc, 25 C
Protocol: (§1) Equilibrium dissociation constants (KD) for natural Bet v 1 binding to purified anti-Bet v 1 monoclonal antibodies were determined using a real-time surface plasmon resonance biosensor (SPR-Biacore) on a Biacore 4000 instrument. All binding studies were performed in 10 mM HEPES, 150 mM NaCl, 3 mM EDTA, and 0.05% v/v surfactant Tween-20, pH 7.4 (HBS-ET) running buffer at 25° C. and 37° C. […] Association (kₐ) and dissociation (kd) rate constants were determined by fitting the real-time binding sensorgrams to a 1:1 binding model with mass transport limitation using Scrubber 2.0c curve-fitting software. Binding dissociation equilibrium constants (KD) and dissociative half-lives (t½) were calculated from the kinetic rate constants as:

[2] = molecular target: T2, Apple (Mal d 1, MyBiosource, Cat …); experiment: SPR, mAb captured via anti-hFc, 25 C
Protocol: (§2) Equilibrium dissociation constants (KD) for different related allergens binding to purified anti-Bet v 1 monoclonal antibodies were determined using a real-time surface plasmon resonance biosensor (SPR-Biacore) on a Biacore 4000 instrument. All binding studies were performed in 10 mM HEPES, 150 mM NaCl, 3 mM EDTA, and 0.05% v/v surfactant Tween-20, pH 7.4 (HBS-ET) running buffer at 25° C. […] Binding studies were performed on the following related allergens: Alder (Aln g 1, MyBiosource, Cat #MBS1041484), Apple (Mal d 1, MyBiosource, Cat #MBS1224919), Carrot (Dau c 1.2, MyBiosource, Cat #MBS1212920), Celery (Api g 1, MyBiosource, Cat #MBS1171376), Celery (Api g 2, MyBiosource, Cat #MBS1047880), European Hornbeam (Car b 1 isoform 1A & 1B, MyBiosource, Cat #MBS1200018), European Hornbeam (Car b 1 isoform 2, MyBiosource, Cat #MBS1043940), Hazel (Cor A 1, MyBiosource, Cat #MBS5304600), and White Oak (Que a 1, MyBiosource, Cat #MBS1258822). […] Association (kₐ) and dissociation (kd) rate constants were determined by fitting the real-time binding sensorgrams to a 1:1 binding model with mass transport limitation using Scrubber 2.0c curve-fitting software. Binding dissociation equilibrium constants (KD) and dissociative half-lives (t½) were calculated from the kinetic rate constants as:

[3] = molecular target: T3, Alder (Aln g 1, MyBiosource, Cat …); experiment: SPR, mAb captured via anti-hFc, 25 C
Protocol: as §2

[4] = molecular target: T4, European Hornbeam (Car b 1 isoform 1A & …); experiment: SPR, mAb captured via anti-hFc, 25 C
Protocol: as §2

[5] = molecular target: T1, CHO produced recombinant Bet v 1 …; experiment: SPR, mAb captured via anti-hFc, 37 C
Protocol: as §1

[6] = molecular target: T5, European Hornbeam (Car b 1 isoform 2, …); experiment: SPR, mAb captured via anti-hFc, 25 C
Protocol: as §2

[7] = molecular target: T6, Celery (Api g 1, MyBiosource, Cat …); experiment: SPR, mAb captured via anti-hFc, 25 C
Protocol: as §2

| 100 nM natural Bet v 1- MMH Bound (RU) [1] | Kd [1] | koff [1] | kon [1] | t½ [1] | 100 nM Analyte Bound (RU) [2] | binding result [2] | 100 nM Analyte Bound (RU) [3] | 100 nM Analyte Bound (RU) [4] | 100 nM natural Bet v 1-MHH Bound (RU) [5] | Kd [5] | koff [5] | kon [5] | t½ [5] | 100 nM Analyte Bound (RU) [6] | Kd [6] | koff [6] | kon [6] | t½ [6] | 100 nM Analyte Bound (RU) [7] | Binder | other results |
| --- | --- | --- | --- | --- | --- | --- | --- | --- | --- | --- | --- | --- | --- | --- | --- | --- | --- | --- | --- | --- | --- |
| 46 RU | 43.8 nM | 0.0215 s⁻¹ | 490000 M⁻¹ s⁻¹ | 0.5 min | 2 RU | no binding (tested: 100 nM) | 139 RU | 0 RU | 36 RU | 106 nM | 0.0847 s⁻¹ | 795000 M⁻¹ s⁻¹ | 0.14 min | 153 RU | 5.56 nM | 0.00561 s⁻¹ | 1.01e+06 M⁻¹ s⁻¹ | 2.1 min | 1 RU | H4H16987P (antibody, human IgG4 S228P, kappa, V domains shown, human IgG4 Fc; also called MAB4) VH: EVQLVESGGGLVQPGGSLRLSCAASGFTVSSNSMSWVRQAPGEGLEWVSVIFSGGITYYSDSVKGRFTISRHNSKNTLYLQMNSLRTEDTAVYYCARHSNWNFDAFDIWGQGTMVTVSS VL: DIQMTQSPSSLSASVGDRVTITCRASQSFDTYLNWYQQKPGKAPNLLIYATSSLQSGVPSRFSGSGSGTDFTLTISSLQPEDFGTYYCQQSYSIPYTFGQGTKLEIKR | Kd [3]: 3.94 nM; koff [3]: 0.00087 s⁻¹; kon [3]: 221000 M⁻¹ s⁻¹; t½ [3]: 13 min; binding result [4]: no binding (tested: 100 nM); binding result [7]: no binding (tested: 100 nM) |
| 46 RU | 0.804 nM | 0.00023 s⁻¹ | 286000 M⁻¹ s⁻¹ | 50 min | 1 RU | no binding (tested: 100 nM) | 0 RU | 1 RU | 56 RU | 1.58 nM | 0.00073 s⁻¹ | 462000 M⁻¹ s⁻¹ | 16 min | 114 RU | 2.48 nM | 0.00241 s⁻¹ | 971000 M⁻¹ s⁻¹ | 4.8 min | 0 RU | H4H16979P (antibody, human IgG4, V domains shown, Fully human antibody with human IgG4 Fc (H4H prefix)) VH: QVQLVQSGAEVKKPGASVKVSCKASGYTFIAYYLHWVRQAPGQGLEWMGLLNPYTGGSYYTQKFQGRVTMTRDTSIDTAYMELNSLRSDDTAIYYCARDKRSYYIPYAFEIWGQGTMVTVSS VL: not shown | binding result [3]: no binding (tested: 100 nM); binding result [4]: no binding (tested: 100 nM); binding result [7]: no binding (tested: 100 nM) |
| 61 RU | 0.735 nM | 0.000287 s⁻¹ | 390000 M⁻¹ s⁻¹ | 40 min | 0 RU | no binding (tested: 100 nM) | 3 RU | 1 RU | 67 RU | 1.48 nM | 0.00106 s⁻¹ | 717000 M⁻¹ s⁻¹ | 11 min | 93 RU | 37.8 nM | 0.0404 s⁻¹ | 1.07e+06 M⁻¹ s⁻¹ | 0.3 min | 0 RU | H4H16991P (antibody, human IgG4, V domains shown, Fully human antibody with human IgG4 Fc (H4H prefix)) VH: QVQLVQSGAEVRKPGASVKVSCKASGYTFTGYYLHWVRQAPGQGLEWMGLINPNTGGTNFAQKFQGRVTMTRDSSISAAYMELSRLRSDDTAVYYCARQHWNRYFDNWGQGTLVTVSS VL: DIQMTQSPSTLSASVGDRVTITCRASQSVGNWLAWYQQKPGKAPKLLIQEASSIESGVPSRFSGSGSGTEFTLIVSSLQPDDFATYYCQQYNSYSWTFGHGTKVEIK | binding result [3]: no binding (tested: 100 nM); binding result [4]: no binding (tested: 100 nM); binding result [7]: no binding (tested: 100 nM) |

The remaining lines, values behind:

| Binder | 100 nM natural Bet v 1- MMH Bound (RU) [1] | Kd [1] | koff [1] | kon [1] | t½ [1] | 100 nM Analyte Bound (RU) [2] | binding result [2] | 100 nM Analyte Bound (RU) [3] | 100 nM Analyte Bound (RU) [4] | 100 nM natural Bet v 1-MHH Bound (RU) [5] | Kd [5] | koff [5] | kon [5] | t½ [5] | 100 nM Analyte Bound (RU) [6] | Kd [6] | koff [6] | kon [6] | t½ [6] | 100 nM Analyte Bound (RU) [7] | other results |
| --- | --- | --- | --- | --- | --- | --- | --- | --- | --- | --- | --- | --- | --- | --- | --- | --- | --- | --- | --- | --- | --- |
| H4H17027P (antibody, human IgG4, V domains shown, Fully human antibody with human IgG4 Fc (H4H prefix)) VH: EVQLVESGGGLVQPGGSLRLSCAASGFTFRNYAMHWVRQAPGEGLEWVAAIYRNSDSIDYADSVKGRFTISRDNAKNSLYLQMNSLKTEDTALYYCAKDEGFLEYFDSWGQGTLVTVSS VL: EIVLTQSPGTLSLSPGERASLSCRASQSVSSSFLAWYQQKPGQAPRLLIYGVSSRFIGIPDRFSGGGSGTDFTLTITRLEPEDFAVYYCQQYGRSPWTFGQGTKVEIK | 63 RU | 2.9 nM | 0.000319 s⁻¹ | 110000 M⁻¹ s⁻¹ | 36 min | 0 RU | no binding (tested: 100 nM) | 9 RU | 41 RU | 78 RU | 6.8 nM | 0.00116 s⁻¹ | 171000 M⁻¹ s⁻¹ | 9.9 min | 42 RU | 98.9 nM | 0.00577 s⁻¹ | 58400 M⁻¹ s⁻¹ | 2 min | 0 RU | Kd [3]: 69.2 nM; koff [3]: 0.00643 s⁻¹; kon [3]: 92900 M⁻¹ s⁻¹; t½ [3]: 1.8 min; Kd [4]: 214 nM; koff [4]: 0.00673 s⁻¹; kon [4]: 31400 M⁻¹ s⁻¹; t½ [4]: 1.7 min; binding result [7]: no binding (tested: 100 nM) |
| H4H17001P (antibody, human IgG4, V domains shown, Fully human antibody with human IgG4 Fc (H4H prefix)) VH: QVQLVESGGGLVKPGGSLRLSCAASGFTFSDYYMNWIRQAPGKGLEWISLISSSGSAIYYSDSVKGRFTISRDNARKSLYLQVNSLRAEDTAVYYCARDRGEWALGAYYYGLDVWGQGTTVTVSS VL: DIVMTQSPLSLPVTPGEPASISCRSSQSLLHSDGYNYLDWYLQKSGQSPQLLIYLGSNRASGVPDRFSGSGSGTDFTLKISRMEAEDVGVYYCMQALQTPYTFGQGTKLEIK | 1 RU |  |  |  |  | 0 RU | no binding (tested: 100 nM) | 49 RU | 0 RU | 2 RU |  |  |  |  | 157 RU | 1.58 nM | 0.0032 s⁻¹ | 2.03e+06 M⁻¹ s⁻¹ | 3.6 min | -1 RU | binding result [1]: no binding (tested: 100 nM); Kd [3]: 105 nM; koff [3]: 0.0278 s⁻¹; kon [3]: 264000 M⁻¹ s⁻¹; t½ [3]: 0.4 min; binding result [4]: no binding (tested: 100 nM) |
| H4H17015P (antibody, human IgG4, V domains shown, Fully human antibody with human IgG4 Fc (H4H prefix)) VH: QVQLQESGPGLVKPSQTLSLTCTVSGGSISSADHYWSWIRQQPGKGLEWIGYISYRGTTYYNPTLESRVSISVDTFKNQFSLMLHSVTVADTAVYYCAKVLQGLVRFRDYGFDVWGQGTTVTVSS VL: DIQLTQSPPFLSASVGDRVTITCWASQDISSYLAWYQQNPGKSPKLLIYDAFTLHTGVPSRFSGSGSGTEFTLTISSLQPEDFATFYCQHLYSFPFTFGPGTKVDIK | 76 RU | 1.03 nM | 0.000281 s⁻¹ | 272000 M⁻¹ s⁻¹ | 41 min | 0 RU | no binding (tested: 100 nM) | 8 RU | 0 RU | 89 RU | 2.02 nM | 0.000899 s⁻¹ | 445000 M⁻¹ s⁻¹ | 13 min | 2 RU |  |  |  |  | 0 RU | binding result [3]: no binding (tested: 100 nM); binding result [4]: no binding (tested: 100 nM); binding result [6]: no binding (tested: 100 nM); binding result [7]: no binding (tested: 100 nM) |
